This data set concerns the molecule itself. Description: cryo-EM structure; purified RodA-PBP2 complex in 0.02% DDM, 350 mM NaCl, 20 mM HEPES pH 7.5; Titan Krios 300 kV; low-resolution maps.

B1: Escherichia coli PBP2, wild type, of ^EcRodA-PBP2^WT (cryo-EM sample) (enzyme, UniProt P0AD65 1-633, looked up)
chain: MKLQNSFRDYTAESALFVRRALVAFLGILLLTGVLIANLYNLQIVRFTDYQTRSNENRIKLVPIAPSRGIIYDRNGIPLALNRTIYQIEMMPEKVDNVQQTLDALRSVVDLTDDDIAAFRKERARSHRFTSIPVKTNLTEVQVARFAVNQYRFPGVEVKGYKRRYYPYGSALTHVIGYVSKINDKDVERLNNDGKLANYAATHDIGKLGIERYYEDVLHGQTGYEEVEVNNRGRVIRQLKEVPPQAGHDIYLTLDLKLQQYIETLLAGSRAAVVVTDPRTGGVLALVSTPSYDPNLFVDGISSKDYSALLNDPNTPLVNRATQGVYPPASTVKPYVAVSALSAGVITRNTTLFDPGWWQLPGSEKRYRDWKKWGHGRLNVTRSLEESADTFFYQVAYDMGIDRLSEWMGKFGYGHYTGIDLAEERSGNMPTREWKQKRFKKPWYQGDTIPVGIGQGYWTATPIQMSKALMILINDGIVKVPHLLMSTAEDGKQVPWVQPHEPPVGDIHSGYWELAKDGMYGVANRPNGTAHKYFASAPYKIAAKSGTAQVFGLKANETYNAHKIAERLRDHKLMTAFAPYNNPQVAVAMILENGGAGPAVGTLMRQILDHIMLGDNNTDLPAENPAVAAAEDH
notes: Forms dimers of the RodA-PBP2 complex when overexpressed; also called ^EcPBP2; ^EcWT; source: overexpressed, purified
With B1, the “stoichiometry N” value came to 2.

The values above are taken from paper PMC10257715, “Allosteric activation of cell wall synthesis during bacterial growth” (Nature Communications, 2023).
